Laboratory results published in FireProtDB (doi:10.1038/75151).

Settings: Bacillus caldolyticus, pH 7, Thermal, CD, Sodium cacodylate-HCl 0.1 M, reversible: yes, whole UniProt chain shown

B1: Cold shock protein CspB wild type, P41016 (protein)
chain: MQRGKVKWFNNEKGYGFIEVEGGSDVFVHFTAIQGEGFKTLEEGQEVSFEIVQGNRGPQAANVVKL
Q: Which unfolding free energy (70 °C, NaCl 2 M) does the source give for B1 here?
A: The unfolding free energy was 2.2 kcal/mol.

Q: What about the Tm of the same protein?
A: Its Tm is 76.9 °C.

Q: And the “unfolding enthalpy (van 't Hoff)” value?
A: Its value is 58.6 kcal/mol.
